Results as given in the supplement of paper PMC9170038.

How the values were obtained:
[1] = test system: MS2 coat protein; test: apparent KD of MS2 coat protein, switch OFF state (with FMN for OFF switches, without FMN for ON switches); designed switch direction (-1 OFF switch, 1 ON switch): -1; higher = weaker reporter binding; settings: FMN input: 0 or 200 uM; Eterna round: R93 (includes R88 designs)
Summary of the method: (§1)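 SNAP-549-labelled MS2 coat protein was titrated onto designed RNA switches that had been transcribed on-chip from Illumina sequencing clusters. Amounts doubled from 0.7 or 1.5 nM to 3 µM in 100 mM Tris-HCl pH 7.5, 80 mM KCl, 4 mM MgCl2, with constant ligand or without. Apparent KD is the median per design of normalised cluster binding-curve fits.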

[2] = test system: MS2 coat protein; test: apparent KD of MS2 coat protein, switch ON state; designed switch direction (-1 OFF switch, 1 ON switch): -1; higher = weaker reporter binding; settings: FMN input: 0 or 200 uM; Eterna round: R93 (includes R88 designs)
Summary of the method: as §1

[3] = test system: MS2 coat protein; test: apparent KD of MS2 coat protein; designed switch direction (-1 OFF switch, 1 ON switch): 1; higher = weaker reporter binding
Summary of the method: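 Designed RNA switches with common flanks were transcribed on Illumina chips by stalled E. coli RNA polymerase and titrated with SNAP-549-labelled MS2 coat protein, from 0.7 or 1.5 nM doubling to 3 µM, in Tris-HCl pH 7.5 buffer with KCl, MgCl2, BSA, DTT, tRNA and Tween-20. Steps lasted 0.8–1.5 h (lowest) to 10–20 min (highest). Titrations ran without input, with 200 uM small-molecule ligand, or with an oligonucleotide input. Normalised cluster fluorescence was curve-fitted, and apparent KD is the per-design median over clusters.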

[4] = input ligand: microRNA oligo, concentration not stated
[5] = Eterna round: R95, input ligand: FMN 200 uM
[6] = Eterna round: R95, input ligand: microRNA oligo, concentration not stated
[7] = Eterna round: R95, input ligand: none

| Sequence | apparent KD of MS2 coat protein [1] | apparent KD of MS2 coat protein [2] | apparent KD of MS2 coat protein [3, 4] | also measured |
| --- | --- | --- | --- | --- |
| AAAAAAAGAGGAUAUACGAACAUGUCAAAAGACGUGAAGGGACAUGAGGAUCACCCAUGUAGAAGGUUUAAAAA [JL Wide Open 29] | 15.5 nM | 32.9 nM |  |  |
| AAAAAACAUGAGGAUCACCCAUGUAAGGAUAUGCAAAAUAAAAGAAAUAAAAAGAAAAGCAGAAGGUAUAUGAA [JL wbt mod 7] | 26.7 nM | 32.6 nM |  |  |
| AAAAAACAUGAGGAUCACCCAUGUAAGGAUAUGCCAACAAACAAACAAACAAAAAAAAGCAGAAGGUACAAAAA [Amethyst 70] | 24.1 nM | 19.8 nM |  |  |
| AAAAAACAUGAGGAUCACCCAUGUAAGGAUAUGCUAAAAAACACGGAAAACGUGAAUAGCAGAAGGUACAAAAA [66%, Wbt, 30] | 38.5 nM | 21.5 nM |  |  |
| AAAAAACAUGAGGAUCACCCAUGUAAGGAUAUGCUGAAAAACACGGAAAAAACGUGCAGCAGAAGGUACAAAAA [66%, Wbt, 33] | 28.3 nM | 20.1 nM |  |  |
| AAAAAACAUGAGGAUCACCCAUGUAAGGAUAUGCUGAAAAACACGGAAAAAACGUGCAGCAGAAGGUACAAAAG [Mat - Exclusion 1 - Eli mod - D90] | 33.9 nM | 16.1 nM |  |  |
| AAAAAACAUGAGGAUCACCCAUGUAAGGAUAUGCUGAAAAACACGGAAAAACGUGACAGCAGAAGGUACAAAAA [66%, Wbt, 32] | 30.4 nM | 21.6 nM |  |  |
| AAAAAACAUGAGGAUCACCCAUGUAAGGAUAUGUAAAAUAAAAGAAAAAUAAAGAAAAGCAGAAGGUACAAAAA [JL wbt mod 19] | 25 nM | 25.9 nM |  |  |
| AAAAAACAUGAGGAUCACCCAUGUCAGGAUAUGCAGAAAAAGAAAAAAAGAAAAGAAAGUAGAAGGGACAAAAA [May 7] | 31.8 nM | 31.2 nM |  |  |
| AAAAAACAUGAGGAUCACCCAUGUGAGGAUAUCCAAAAGAAAAGAAAAGAAAGAAGAAGGAGAAGGCACAAGAA [Khufu] | 47.9 nM | 55.2 nM |  |  |
| AAAAAACAUGAGGAUCACCCAUGUGAGGAUAUCCAAAAGUUAAAUAAAAAGACGAAAAGGAGAAGGCGCAAAAA [Mat - Mod of Eli] | 39.4 nM | 64.9 nM |  |  |
| AAAAAACAUGAGGAUCACCCAUGUGAGGAUAUCCUAAACAAAAAAAACAAAAACAAAUGGAGAAGGCACAAAAA [Amethyst 35] | 126 nM | 105 nM |  |  |
| UUGCGGGCUUGAGGAUAUUGAGUACAUAUGUUUAACAUGAGGAUCACCCAUGUGGGUUGCGGUAUCGAGAAGGUAACUUCCUAC [salish99_SSNG2_r04_808] (Eterna round: R96, puzzle: Same State NG 2) |  |  | 92.5 nM | apparent KD of MS2 coat protein ([3]; input ligand: FMN 200 uM): 169 nM; apparent KD of MS2 coat protein ([3]; input ligand: none): 153 nM |
| UUGCGGGUUUGAGGAUAUUGAGUACAUAUGUUUAACAUGAGGAUCACCCAUGUGGGUUGCGGUAUCGAGAAGGUAACUUACUAC [salish99_SSNG2_r04_806] (Eterna round: R96, puzzle: Same State NG 2) |  |  | 68.9 nM | apparent KD of MS2 coat protein ([3]; input ligand: FMN 200 uM): 179 nM; apparent KD of MS2 coat protein ([3]; input ligand: none): 110 nM |
| UUGCUCGGGUGAGGAUAUGCCGCCGUUUCGGCUGCAGAAGGUGCUACGUUACAUGAGGAUCACCCAUGUCUCUGUUGUUUCGUC [salish99_SSNG1_r04_968] (Eterna round: R96, puzzle: Same State NG 1) |  |  | 28.1 nM | apparent KD of MS2 coat protein ([3]; input ligand: FMN 200 uM): 65.1 nM; apparent KD of MS2 coat protein ([3]; input ligand: none): 52.3 nM |
| UUGUUUAGUAAUUAACAUGAGGAUCACCCAUGUCUUGGCUCAGAGGAUAUGCAUGUUUGAUUGUAGCAGAAGGCUGAUUGUUGU [JR_SSNG3_Sub030] (Eterna round: R96, puzzle: Same State NG 3) |  |  | 148 nM | apparent KD of MS2 coat protein ([3]; input ligand: FMN 200 uM): 65.1 nM; apparent KD of MS2 coat protein ([3]; input ligand: none): 107 nM |

| Sequence | apparent KD of MS2 coat protein [1] | apparent KD of MS2 coat protein [2] | apparent KD of MS2 coat protein [3, 4] | also measured |
| --- | --- | --- | --- | --- |
| UUGUUUCACGUAGGAUAUCGACCUACAUGAGGAUCACCCAUGUUUUUGAAUAGAUUUUUUUGUUACGAGAAGGACGUUAUGUAU [JR_SSNG2_Sub065] (Eterna round: R96, puzzle: Same State NG 2) |  |  | 104 nM | apparent KD of MS2 coat protein ([3]; input ligand: FMN 200 uM): 59.3 nM; apparent KD of MS2 coat protein ([3]; input ligand: none): 168 nM |
| UUUACAUUACGAGGAUAUCAAUUAUUUCAUGUAUGAGAAGGCGUUAUUUUUACUACCUUACAUGAGGAUCACCCAUGUUUCAUU [JR_SSNG1_Sub041] (Eterna round: R96, puzzle: Same State NG 1) |  |  | 40.3 nM |  |
| UUUACAUUACGAGGAUAUCAAUUAUUUCAUGUUUGAGAAGGCGUUUUUUUUAUUACCUUACAUGAGGAUCACCCAUGUUUCAUU [JR_SSNG1_Sub042] (Eterna round: R96, puzzle: Same State NG 1) |  |  | 18.4 nM | apparent KD of MS2 coat protein ([3]; input ligand: FMN 200 uM): 19.4 nM; apparent KD of MS2 coat protein ([3]; input ligand: none): 25.5 nM |
| UUUAGAUUCAGAGGAUAUUGAUGUUGUAAGUAACAAGAAGGCUGAUUGGUUAGAAUUGUUUAUUAACAUGAGGAUCACCCAUGU [JR_SSNG1_Sub010] (Eterna round: R96, puzzle: Same State NG 1) |  |  | 28.2 nM | apparent KD of MS2 coat protein ([3]; input ligand: FMN 200 uM): 18.1 nM; apparent KD of MS2 coat protein ([3]; input ligand: none): 30.6 nM |
| UUUAGGUACGGGCAGGAUAUGUAUUAAAAUACAUGAGGAUCACCCAUGUGCGGGUAUAACACCCGACAGAAGGGCCAAUCGUACC [Laonerce - 10] (puzzle: Same State 2) |  |  |  | apparent KD of MS2 coat protein [3, 5]: 25.1 nM; apparent KD of MS2 coat protein [3, 6]: 136 nM; apparent KD of MS2 coat protein [3, 7]: 251 nM |
| UUUAGUUGCGGGCAGGAUAUGUAUUAAAAUACAUGAGGAUCACCCAUGUGAGGCCGAAAAGGCCUACAGAAGGGCCAAACGCGAC [Laonerce - 23] (puzzle: Same State 2) |  |  |  | apparent KD of MS2 coat protein [3, 5]: 14.4 nM; apparent KD of MS2 coat protein [3, 6]: 84.5 nM; apparent KD of MS2 coat protein [3, 7]: 117 nM |
| UUUAGUUGCGGGCAGGAUAUGUAUUAAAAUACAUGAGGAUCACCCAUGUGUGGGUAUAACACCCAACAGAAGGGCCAAUCGCGAC [Laonerce - 12] (Eterna round: R96, puzzle: Same State 2) |  |  | 94.4 nM |  |
| UUUAGUUGCGGGCAGGAUAUGUAUUAAAAUACAUGAGGAUCACCCAUGUGUGGGUAUAACACCCAACAGAAGGGCCAAUCGCGAC [Laonerce - 12] (puzzle: Same State 2) |  |  |  | apparent KD of MS2 coat protein [3, 5]: 17.2 nM; apparent KD of MS2 coat protein [3, 6]: 154 nM; apparent KD of MS2 coat protein [3, 7]: 165 nM |
| UUUAUAUUCAGAGGAUAUUAAAGUAGUAUAAUAUAAGAAGGCUGUUUGUUUUGUAAAUUUAUUCUACAUGAGGAUCACCCAUGU [JR_SSNG1_Sub086] (Eterna round: R96, puzzle: Same State NG 1) |  |  | 14.5 nM |  |
| UUUAUAUUCAGAGGAUAUUAAUGUAGUAUAACAUAAGAAGGCUGUUUGUUUUGUAAAGUAAUUCUACAUGAGGAUCACCCAUGU [JR_SSNG1_Sub084] (Eterna round: R96, puzzle: Same State NG 1) |  |  | 15.5 nM |  |
| UUUAUAUUCAGAGGAUAUUAAUGUAGUAUAAUAUAAGAAGGCUGUUUGUUUUGUAAAGUUAUUAUACAUGAGGAUCACCCAUGU [JR_SSNG1_Sub083] (Eterna round: R96, puzzle: Same State NG 1) |  |  | 13.5 nM |  |
| UUUGCAUGACGAGGAUAUCAUUUAUUUCUUGAUUGAGAAGGCGUUCUUUUUAUUACCUAACAUGAGGAUCACCCAUGUGACAGU [JR_SSNG1_Sub046] (Eterna round: R96, puzzle: Same State NG 1) |  |  | 10.3 nM | apparent KD of MS2 coat protein ([3]; input ligand: FMN 200 uM): 13.2 nM; apparent KD of MS2 coat protein ([3]; input ligand: none): 16.7 nM |
| UUUGCAUGACGAGGAUAUCAUUUAUUUCUUGAUUGAGAAGGCGUUCUUUUUCCUACCUAACAUGAGGAUCACCCAUGUGACAGU [JR_SSNG1_Sub049] (Eterna round: R96, puzzle: Same State NG 1) |  |  | 12 nM | apparent KD of MS2 coat protein ([3]; input ligand: FMN 200 uM): 12.7 nM; apparent KD of MS2 coat protein ([3]; input ligand: none): 14 nM |
| UUUUUUAUCGUAGGAUAUAGGUUGAAUAAUAGACUAGAAGGACGUGACAUGAGGAUCACCCAUGUUUUUUAAGUGUCGAAGUGU [JR_SSNG1_Sub039] (Eterna round: R96, puzzle: Same State NG 1) |  |  | 19.6 nM |  |
| UUUUUUUUACAUGAGGAUCACCCAUGUCGGGCUGUUUGCUUUCAUGUCUUAUUGCAUGCAUGUUUUUCAUGCAUGCU [jnicol vienna2 solution] (puzzle: Sensor for hsa-mir-208a version 2) |  |  |  | apparent KD of MS2 coat protein [3, 5]: 97.7 nM; apparent KD of MS2 coat protein [3, 6]: 129 nM; apparent KD of MS2 coat protein [3, 7]: 145 nM |
